# Reference: the RNAGym collection of RNA variant scans (doi:10.7554/elife.80360)
# B1: Hairpin Ribozyme (parent)
# chain: GUCCUCUUUCACGUGCGCGUGAAAGAGAGAAGUGAACCAGAGAAACACACGUUGUGGUAUAUUACCUGGUA
# Variants of: B1
# Assay: self-cleavage, relative activity (ratio to wild type); higher = more cleavage; co-transcriptional
row,Variant,self-cleavage
1,U7C A28U,0.514
2,C37A U67A,0.197
3,U2G G34U,0.984
4,G29U C38U,0.1
5,C37G A43U,0.177
6,G1C C66U,0.12
7,A43C C46A,0.1
8,G21A A22G,0.728
9,U14A A39U,0.408
10,C12G G25A,0.524
11,U7A U60G,0.496
12,A11G U60G,0.565
13,A31U U33G,0.143
14,U20C C38G,0.154
15,C65A G69A,0.169
16,U5A A28U,0.126
17,G1A C46A,0.134
18,U5A A30U,0.263
19,U2A C16A,0.221
20,G34C C38U,1.28
21,U14A G54A,0.581
22,C6G C16G,0.423
23,U9A C10U,0.455
24,G56A G57A,0.136

row,Variant,self-cleavage
1,G56A G57C,0.128
2,A23C C66A,0.218
3,U20G U58A,0.501
4,C4A U62G,0.1
5,A31U C46G,0.212
6,G17A C50U,0.373
7,A28C G56A,0.137
8,C3A U8A,0.547
9,G13A U14G,0.538
10,G13A U14A,0.99
11,G13U U33G,0.0972
12,G1C C48A,0.129
13,U2A A30G,0.442
14,G27C U52G,0.163
15,C6A U7G,0.447
16,C3U C4U,0.39
17,G1U G68U,0.051
18,A39U A49U,0.0838
19,U8A G25U,0.114
20,G42U A59G,0.172
21,A22G G68C,0.182
22,G13U U52C,0.655
23,C46A G68A,0.12
24,A36U G56A,0.0631

row,Variant,self-cleavage
1,G25A G69A,0.238
2,G21U A22G,0.736
3,G57U G69U,0.215
4,G68U G69A,0.3
5,U5A C38G,0.0942
6,G21A U70A,0.742
7,C12U A35U,0.743
8,U14G A35C,0.805
9,C4G C18G,0.0835
10,A31C U55A,0.0627
11,G1U A41C,0.0514
12,G19U A39G,0.297
13,U8G G40C,0.111
14,A61C,0.214
15,U9C G17C,0.647
16,A43U U55A,0.129
17,C37U A41G,0.994
18,U8G G25A,0.21
19,G15C,1.03
20,G32U A45G,0.0481
21,G15U A23G,0.87
22,A22G A64U,0.173
23,G19U A31U,0.0864
24,G32C C48G,0.121

row,Variant,self-cleavage
1,U7A G25A,0.249
2,U52C U70G,0.988
3,G1C G25U,0.211
4,C18A G27C,0.165
5,C3U U20C,0.38
6,A35C A39U,0.445
7,A41U U67G,0.534
8,A45C C65G,0.0639
9,U5C U52C,0.636
10,C50A U62A,0.0965
11,G42U U53A,0.298
12,G19A U55A,0.29
13,A23C A31U,0.179
14,U7C C46A,0.224
15,G34A U58C,1.11
16,C38U G42A,0.132
17,C38U A71U,0.401
18,A28G C48U,0.276
19,C18G G54C,0.471
20,G32A U58C,0.184
21,A11C A45G,0.162
22,U7G A59G,0.0757
23,G68C U70C,0.339
24,C16A C65U,0.242

row,Variant,self-cleavage
1,U9A A26G,0.825
2,G40C A61G,0.0698
3,C10U A43U,0.0631
4,G15A A23G,0.862
5,U67A U70G,0.186
6,U20C G27A,0.345
7,G15C C16A,1.1
8,U8A G51C,0.602
9,C4A U63C,0.115
10,U20C C46A,0.237
11,G51U G56U,0.0869
12,G13U G15A,0.491
13,G15C A45G,0.194
14,U5C C16A,0.693
15,C16G C37U,0.346
16,C38G C46A,0.148
17,A26C A36U,0.556
18,G54C U67C,0.109
19,U2G A11U,0.295
20,A39U C50A,0.139
21,C16U A61U,0.256
22,A41U U63A,0.105
23,A61U A64U,0.3
24,C3A A31C,0.144

row,Variant,self-cleavage
1,U52G U62G,0.0994
2,G15C A41C,1.28
3,G40C U67G,0.157
4,C4A G17A,0.174
5,C12A G27A,0.378
6,U2G G56A,0.0909
7,A59U U70C,0.199
8,U33C U63G,0.0654
9,G17A C38A,0.169
10,U7C A24U,0.707
11,G19A A47G,0.183
12,C4A A39G,0.134
13,U53C A59U,0.166
14,C12A A39C,0.397
15,A36U A41C,0.654
16,C18A A43U,0.196
17,C3A A30U,0.16
18,G21A A49U,0.234
19,G34U U63A,0.243
20,U5A C65A,0.22
21,U9A A31U,0.0478
22,A22G A44G,0.193
23,C16U A59U,0.173
24,G25C G54U,0.245

row,Variant,self-cleavage
1,U8A G69U,0.213
2,C4U A31G,0.0741
3,A23G A31G,0.416
4,A47U U67A,0.103
5,G32U G34C,0.18
6,C37G G69A,0.346
7,C37G G69C,0.984
8,U20A C66A,0.231
9,U20A G21U,0.642
10,A22G C38U,0.589
11,U5A G54U,0.327
12,C18A A35G,1.05
13,A28C U60C,0.558
14,U20C A30U,0.0821
15,U53A C66U,0.649
16,A11C U53G,0.863
17,U14C U70C,1.15
18,A23G C66U,0.456
19,C6U G34U,1.21
20,C4A G25A,0.169
21,C46U C50U,0.227
22,A35G U67A,0.201
23,U33G A41C,0.156
